# Key:
# [1] = tested on: HeLa Kyoto; assay: thermal stability score vs G1/S (z-score of summed log2 fold changes over temperatures); higher = more thermally stable than in G1/S
# [2] = tested on: HeLa Kyoto; assay: solubility in G1/S (NP-40 vs SDS abundance) (log2 ratio); higher = more soluble; conditions: cell cycle stage: G1/S
# [3] = tested on: HeLa Kyoto; assay: melting temperature (median over replicates), in situ; higher = more thermally stable
# [4] = tested on: HeLa Kyoto; assay: solubility change mitosis vs G1/S (difference of NP-40 vs SDS log2 ratios) (log2 ratio difference); higher = more soluble in mitosis
# [5] = cell cycle stage: early G1 (4.5 h after nocodazole release)
# 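Wherever melting temperature (median over replicates), in situ is given: HeLa Kyoto cells synchronized by double thymidine or nocodazole block, proteins quantified by TMT10plex mass spectrometry, three independent biological replicates.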
# 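Wherever solubility change mitosis vs G1/S (difference of NP-40 vs SDS log2 ratios) is given: synchronized HeLa Kyoto cells (double thymidine block for G1/S, nocodazole release for mitosis), protein amounts in NP-40 versus SDS lysates quantified by mass spectrometry, three biological replicates.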
# 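Wherever solubility in G1/S (NP-40 vs SDS abundance) is given: HeLa Kyoto cells arrested at G1/S by double thymidine block, proteins quantified by TMT10plex mass spectrometry in mild NP-40 versus SDS extracts, three biological replicates.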
# 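Wherever thermal stability score vs G1/S (z-score of summed log2 fold changes over temperatures) is given: synchronized HeLa Kyoto cells, proteins quantified by TMT10plex mass spectrometry, three biological replicates, mitosis taken 0.5 h after nocodazole release, G1/S directly after double thymidine block.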
Substance,"thermal stability score [1, 5]",thermal stability score ([1]; cell cycle stage: mitosis),solubility in G1/S (log2) [2],melting temperature ([3]; cell cycle stage: G1/S),melting temperature ([3]; cell cycle stage: mitosis),solubility change mitosis (log2) [4]
MDMGNQHPSISRLQEIQKEVKSVEQQVIGFSGLSDDKNYKKLERILTKQLFEIDSVDTEGKGDIQQARKRAAQETERLLKELEQNANHPHRIEIQNIFEEAQSLVREKIVPFYNGGNCVTDEFEEGIQDIILRLTHVKTGGKISLRKARYHTLTKICAVQEIIEDCMKKQPSLPLSEDAHPSVAKINFVMCEVNKARGVLIALLMGVNNNETCRHLSCVLSGLIADLDALDVCGRTEIRNYRREVVEDINKLLKYLDLEEEADTTKAFDLRQNHSILKIEKVLKRMREIKNELLQAQNPSELYLSSKTELQGLIGQLDEVSLEKNPCIREARRRAVIEVQTLITYIDLKEALEKRKLFACEEHPSHKAVWNVLGNLSEIQGEVLSFDGNRTDKNYIRLEELLTKQLLALDAVDPQGEEKCKAARKQAVRLAQNILSYLDLKSDEWEY [BAG5],1.27,1.14,0.621,49.6 °C,50.4 °C,-0.166
MDN1,0.349,1.35,-0.665,51.1 °C,50.5 °C,0.182
MDNMSITNTPTSNDACLSIVHSLMCHRQGGESETFAKRAIESLVKKLKEKKDELDSLITAITTNGAHPSKCVTIQRTLDGRLQVAGRKGFPHVIYARLWRWPDLHKNELKHVKYCQYAFDLKCDSVCVNPYHYERVVSPGIDLSGLTLQSNAPSSMMVKDEYVHDFEGQPSLSTEGHSIQTIQHPPSNRASTETYSTPALLAPSESNATSTANFPNIPVASTSQPASILGGSHSEGLLQIASGPQPGQQQNGFTGQPATYHHNSTTTWTGSRTAPYTPNLPHHQNGHLQHHPPMPPHPGHYWPVHNELAFQPPISNHPAPEYWCSIAYFEMDVQVGETFKVPSSCPIVTVDGYVDPSGGDRFCLGQLSNVHRTEAIERARLHIGKGVQLECKGEGDVWVRCLSDHAVFVQSYYLDREAGRAPGDAVHKIYPSAYIKVFDLRQCHRQMQQQAATAQAAAAAQAAAVAGNIPGPGSVGGIAPAISLSAAAGIGVDDLRRLCILRMSFVKGWGPDYPRQSIKETPCWIEIHLHRALQLLDEVLHTMPIADPQPLD [SMAD4],0.424,0.695,-0.0138,51.3 °C,50.9 °C,-0.03
MDNSGKEAEAMALLAEAERKVKNSQSFFSGLFGGSSKIEEACEIYARAANMFKMAKNWSAAGNAFCQAAQLHLQLQSKHDAATCFVDAGNAFKKADPQEAINCLMRAIEIYTDMGRFTIAAKHHISIAEIYETELVDIEKAIAHYEQSADYYKGEESNSSANKCLLKVAGYAALLEQYQKAIDIYEQVGTNAMDSPLLKYSAKDYFFKAALCHFCIDMLNAKLAVQKYEELFPAFSDSRECKLMKKLLEAHEEQNVDSYTESVKEYDSISRLDQWLTTMLLRIKKTIQGDEEDLR [NAPA],-0.447,-0.81,0.324,51.7 °C,52.2 °C,0.0471
MDPFLVLLHSVSSSLSSSELTELKFLCLGRVGKRKLERVQSGLDLFSMLLEQNDLEPGHTELLRELLASLRRHDLLRRVDDFEAGAAAGAAPGEEDLCAAFNVICDNVGKDWRRLARQLKVSDTKIDSIEDRYPRNLTERVRESLRIWKNTEKENATVAHLVGALRSCQMNLVADLVQEVQQARDLQNRSGAMSPMSWNSDASTSEAS [FADD],-0.0741,1.4,-0.257,52.3 °C,49.4 °C,-0.0735
MDPGDDWLVESLRLYQDFYAFDLSGATRVLEWIDDKGVFVAGYESLKKNEILHLKLPLRLSVKENKGLFPERDFKVRHGGFSDRSIFDLKHVPHTRLLVTSGLPGCYLQVWQVAEDSDVIKAVSTIAVHEKEESLWPRVAVFSTLAPGVLHGARLRSLQVVDLESRKTTYTSDVSDSEELSSLQVLDADTFAFCCASGRLGLVDTRQKWAPLENRSPGPGSGGERWCAEVGSWGQGPGPSIASLGSDGRLCLLDPRDLCHPVSSVQCPVSVPSPDPELLRVTWAPGLKNCLAISGFDGTVQVYDATSWDGTRSQDGTRSQVEPLFTHRGHIFLDGNGMDPAPLVTTHTWHPCRPRTLLSATNDASLHVWDWVDLCAPR [WDR73],0.072,0.551,-0.0335,54.8 °C,54 °C,-0.0847
MDPRKVNELRAFVKMCKQDPSVLHTEEMRFLREWVESMGGKVPPATQKAKSEENTKEEKPDSKKVEEDLKADEPSSEESDLEIDKEGVIEPDTDAPQEMGDENAEITEEMMDQANDKKVAAIEALNDGELQKAIDLFTDAIKLNPRLAILYAKRASVFVKLQKPNAAIRDCDRAIEINPDSAQPYKWRGKAHRLLGHWEEAAHDLALACKLDYDEDASAMLKEVQPRAQKIAEHRRKYERKREEREIKERIERVKKAREEHERAQREEEARRQSGAQYGSFPGGFPGGMPGNFPGGMPGMGGGMPGMAGMPGLNEILSDPEVLAAMQDPEVMVAFQDVAQNPANMSKYQSNPKVMNLISKLSAKFGGQA [ST13],2.23,1.79,0.813,51.8 °C,51.3 °C,0.103
MDPSDFPSPFDPLTLPEKPLAGDLPVDMEFGEDLLESQTAPTRGWAPPGPSPSSGALDLLDTPAGLEKDPGVLDGATELLGLGGLLYKAPSPPEVDHGPEGTLAWDAGDQTLEPGPGGQTPEVVPPDPGAGANSCSPEGLLEPLAPDSPITLQSPHIEEEETTSIATARRGSPGQEEELPQGQPQSPNAPPSPSVGETLGDGINSSQTKPGGSSPPAHPSLPGDGLTAKASEKPPERKRSERVRRAEPPKPEVVDSTESIPVSDEDSDAMVDDPNDEDFVPFRPRRSPRMSLRSSVSQRAGRSAVGTKMTCAHCRTPLQKGQTAYQRKGLPQLFCSSSCLTTFSKKPSGKKTCTFCKKEIWNTKDSVVAQTGSGGSFHEFCTSVCLSLYEAQQQRPIPQSGDPADATRCSICQKTGEVLHEVSNGSVVHRLCSDSCFSKFRANKGLKTNCCDQCGAYIYTKTGSPGPELLFHEGQQKRFCNTTCLGAYKKKNTRVYPCVWCKTLCKNFEMLSHVDRNGKTSLFCSLCCTTSYKVKQAGLTGPPRPCSFCRRSLSDPCYYNKVDRTVYQFCSPSCWTKFQRTSPEGGIHLSCHYCHSLFSGKPEVLDWQDQVFQFCCRDCCEDFKRLRGVVSQCEHCRQEKLLHEKLRFSGVEKSFCSEGCVLLYKQDFTKKLGLCCITCTYCSQTCQRGVTEQLDGSTWDFCSEDCKSKYLLWYCKAARCHACKRQGKLLETIHWRGQIRHFCNQQCLLRFYSQQNQPNLDTQSGPESLLNSQSPESKPQTPSQTKVENSNTVRTPEENGNLGKIPVKTRSAPTAPTPPPPPPPATPRKNKAAMCKPLMQNRGVSCKVEMKSKGSQTEEWKPQVIVLPIPVPIFVPVPMHLYCQKVPVPFSMPIPVPVPMFLPTTLESTDKIVETIEELKVKIPSNPLEADILAMAEMIAEAEELDKASSDLCDLVSNQSAEGLLEDCDLFGPARDDVLAMAVKMANVLDEPGQDLEADFPKNPLDINPSVDFLFDCGLVGPEDVSTEQDLPRTMRKGQKRLVLSESCSRDSMSSQPSCTGLNYSYGVNAWKCWVQSKYANGETSKGDELRFGPKPMRIKEDILACSAAELNYGLAQFVREITRPNGERYEPDSIYYLCLGIQQYLLENNRMVNIFTDLYYLTFVQELNKSLSTWQPTLLPNNTVFSRVEEEHLWECKQLGVYSPFVLLNTLMFFNTKFFGLQTAEEHMQLSFTNVVRQSRKCTTPRGTTKVVSIRYYAPVRQRKGRDTGPGKRKREDEAPILEQRENRMNPLRCPVKFYEFYLSKCPESLRTRNDVFYLQPERSCIAESPLWYSVIPMDRSMLESMLNRILAVREIYEELGRPGEEDLD [ZMYM3],0.311,1.4,-0.523,49.3 °C,50.6 °C,0.169
MDRNPSPPPPGRDKEEEEEVAGGDCIGSTVYSKHWLFGVLSGLIQIVSPENTKSSSDDEEQLTELDEEMENEICRVWDMSMDEDVALFLQEFNAPDIFMGVLAKSKCPRLREICVGILGNMACFQEICVSISSDKNLGQVLLHCLYDSDPPTLLETSRLLLTCLSQAEVASVWVERIQEHPAIYDSICFIMSSSTNVDLLVKVGEVVDKLFDLDEKLMLEWVRNGAAQPLDQPQEESEEQPVFRLVPCILEAAKQVRSENPEWLDVYMHILQLLTTVDDGIQAIVHCPDTGKDIWNLLFDLVCHEFCQSDDPPIILQEQKTVLASVFSVLSAIYASQTEQEYLKIEKVDLPLIDSLIRVLQNMEQCQKKPENSAESNTEETKRTDLTQDDFHLKILKDILCEFLSNIFQALTKETVAQGVKEGQLSKQKCSSAFQNLLPFYSPVVEDFIKILREVDKALADDLEKNFPSLKVQT [SAAL1],0.137,0.212,0.294,52.3 °C,50.6 °C,0.00183
MDRRSMGETESGDAFLDLKKPPASKCPHRYTKEELLDIKELPHSKQRPSCLSEKYDSDGVWDPEKWHASLYPASGRSSPVESLKKELDTDRPSLVRRIVDPRERVKEDDLDVVLSPQRRSFGGGCHVTAAVSSRRSGSPLEKDSDGLRLLGGRRIGSGRIISARTFEKDHRLSDKDLRDLRDRDRERDFKDKRFRREFGDSKRVFGERRRNDSYTEEEPEWFSAGPTSQSETIELTGFDDKILEEDHKGRKRTRRRTASVKEGIVECNGGVAEEDEVEVILAQEPAADQEVPRDAVLPEQSPGDFDFNEFFNLDKVPCLASMIEDVLGEGSVSASRFSRWFSNPSRSGSRSSSLGSTPHEELERLAGLEQAILSPGQNSGNYFAPIPLEDHAENKVDILEMLQKAKVDLKPLLSSLSANKEKLKESSHSGVVLSVEEVEAGLKGLKVDQQVKNSTPFMAEHLEETLSAVTNNRQLKKDGDMTAFNKLVSTMKASGTLPSQPKVSRNLESHLMSPAEIPGQPVPKNILQELLGQPVQRPASSNLLSGLMGSLEPTTSLLGQRAPSPPLSQVFQTRAASADYLRPRIPSPIGFTPGPQQLLGDPFQGMRKPMSPITAQMSQLELQQAALEGLALPHDLAVQAANFYQPGFGKPQVDRTRDGFRNRQQRVTKSPAPVHRGNSSSPAPAASITSMLSPSFTPTSVIRKMYESKEKSKEEPASGKAALGDSKEDTQKASEENLLSSSSVPSADRDSSPTTNSKLSALQRSSCSTPLSQANRYTKEQDYRPKATGRKTPTLASPVPTTPFLRPVHQVPLVPHVPMVRPAHQLHPGLVQRMLAQGVHPQHLPSLLQTGVLPPGMDLSHLQGISGPILGQPFYPLPAASHPLLNPRPGTPLHLAMVQQQLQRSVLHPPGSGSHAAAVSVQTTPQNVPSRSGLPHMHSQLEHRPSQRSSSPVGLAKWFGSDVLQQPLPSMPAKVISVDELEYRQ [EIF4ENIF1],-0.104,0.531,0.0256,50.3 °C,49.3 °C,0.0657

# — the supplement of paper PMC5998384
